Results reported in the Human Domainome abundance scans (Beltran et al. 2025).

B1: Ankyrin repeat and SOCS box protein 14, residues 532 to 572; numbered along this chain, A6NK59 (parent)
chain: RSLKHLCRLKIRKCMGRLHLRCPVFMSFLPLPNRLKAYVLY

Variants of: B1
Assay: abundance fitness (aPCA) (normalised: wild type 0, dead -1); higher = more abundant; growth selection in yeast, the domain comes from the species named
Settings: Homo sapiens

Abundance fitness: each site, then its substitutions
I11: C -1.05, G -0.68, L -0.09, W 0.023, K -0.858, P -0.675, T -0.722, A -0.613, E -0.953, V -0.17, R -0.956, Q -0.992
R8: T 0.005, G -0.004, K 0.118, L 0.07, W 0.4, E -0.092, Q -0.048, A 0.104, Y 0.329, V 0.057, S -0.132, P 0.076, C 0.006
C7: V 0.304, P -0.577, W 0.099, K -0.596, A 0.063, H -0.631, G -0.291, E -0.37, Q -0.529, I 0.229, R -0.871, N -0.414, T -0.217, S -0.357, F 0.041, M 0.24
H5: M 0.057, G -0.37, D -0.293, P -0.6, A -0.137, E -0.018, C -0.043, N -0.105, V -0.94, R -0.285, S 0.069, L -0.184, Q -0.296
M15: T -0.383, H -0.794, S -0.612, R -0.6, E -0.738, V -0.126, P -0.671, G -0.367, C -0.319, L 0.202, D -1, F -0.16, A -0.204, Q -0.576
K10: C -0.193, H -0.559, A 0.352, L 0.445, G -0.066, D -0.319, E -0.208, Y 0.168, V 0.406, M 0.439, Q -0.107, R -0.393, T 0.039
L6: H 0.054, S 0.155, Y 0.083, Q 0.261, T -0.041, K 0.027, A 0.122, P -0.493, G -0.297, D 0.192, R 0.154, E 0.166, V -0.183, W 0.394, C 0.204
R12: A -0.261, H -0.662, M 0.083, Q -0.168, K 0.129, I 0.099, C -0.249, D -0.03, V -0.071, P -0.235, S -0.178, L -0.063, W -0.201, G -0.262, T -0.224
C14: R -0.264, S -0.155, E -0.024, M 0.308, A 0.273, L 0.431, P -0.3, K -0.165, D 0.014, G -0.076, W 0.462, V 0.376, H -0.373
L9: W -0.235, C 0.119, S 0.012, A 0.003, Q 0.156, V -0.22, H -0.089, M 0.076, D 0.13, K -0.234, I 0.08, G -0.084, P -0.866, E 0.308, T 0.118, R -0.205
K4: L 0.157, P -0.233, Y 0.34, R -0.155, V -0.174, T 0.031, Q -0.425, N -0.344, M -0.002, W 0.051, S -0.135
K13: R 0.048, V -0.236, E 0.201, Q 0.086, L -0.241, I -0.091, S -0.031, A 0.009, W -0.166, G 0.045, T -0.161, H -0.081, C -0.192, Y -0.179, M -0.09, P -0.434
